This is an account of results in paper PMC13244463, “Intermolecular β‑sheet Formation Guides the Interaction between Ubiquitin-like Modifier FAT10 and Adapter Protein NUB1L” (Journal of the American Chemical Society, 2026).

This assay concerns the target T1, Human NUB1L (amino acids 2-615) (human, UniProt Q9Y5A7-1 2-615).
T1 construct: NUB1L, the long isoform of NEDD8-ultimate buster 1, human, amino acids 2-615 (615 residues in the long isoform); Details are in the Supporting Information; also called NEDD8-ultimate buster 1 long isoform; natural abundance NUB1L; source: E. coli BL21-CodonPlus(DE3)-RIPL, LB medium, purified (same steps as for N-FAT10-C0)
T1 sequence (looked up): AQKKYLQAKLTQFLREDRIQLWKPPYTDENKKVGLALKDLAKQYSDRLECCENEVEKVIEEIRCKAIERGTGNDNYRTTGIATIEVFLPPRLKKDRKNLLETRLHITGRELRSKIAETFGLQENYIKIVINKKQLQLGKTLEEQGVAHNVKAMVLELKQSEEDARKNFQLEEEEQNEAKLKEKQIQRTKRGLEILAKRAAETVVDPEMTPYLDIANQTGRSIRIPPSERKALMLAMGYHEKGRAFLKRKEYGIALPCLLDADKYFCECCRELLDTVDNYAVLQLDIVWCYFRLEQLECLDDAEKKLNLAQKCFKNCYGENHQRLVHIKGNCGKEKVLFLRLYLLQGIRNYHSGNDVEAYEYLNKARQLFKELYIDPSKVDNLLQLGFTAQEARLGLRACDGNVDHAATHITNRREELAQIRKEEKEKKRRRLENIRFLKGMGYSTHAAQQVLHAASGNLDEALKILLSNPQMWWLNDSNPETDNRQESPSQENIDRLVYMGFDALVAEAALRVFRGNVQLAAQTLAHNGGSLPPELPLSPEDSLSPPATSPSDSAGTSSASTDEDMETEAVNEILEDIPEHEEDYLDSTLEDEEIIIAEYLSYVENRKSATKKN
Put plainly: SEC; size-exclusion chromatography (with SDS-PAGE) of N-FAT10-C0 with NUB1L, Figure S1; conditions are in the Supporting Information. The following applies: both partners purified. (In general: SEC sorts molecules by how far they enter the pores of the column.)

B1: Cys-free N-domain of human FAT10 (amino acids 5-86; C7T, C9T) (domain or fragment)
chain: GASTLTVHVRSEEWDLMTFDANPYDSVKKIKEHVRSKTKVPVQDQVLLLGSKILKPRRSLSSYGIDKEKTIHLTLKVVKPSDE
notes: additional glycine residue at the N-terminus that remains from the TEV protease cleavage site; FAT10 (human leukocyte antigen F adjacent transcript 10), human, N-domain, amino acids 5-86, with C7T and C9T; 83 residues together with the extra glycine; Uniformly 13C,15N labelled (M9 medium with U-13C6-D-glucose and 15N-ammonium chloride) for MAS NMR; Detailed protocols are in the Supporting …
As to B1, the binding result is recorded as “binds”.
